Among the data in patent US20260374887 (published 2026) are Kd values, retold here.

The experiment has as its target BAFF-R (human, UniProt Q96RJ3). Briefly: other, in vitro experiments.

Sequence of BAFF-R (Q96RJ3 7-71): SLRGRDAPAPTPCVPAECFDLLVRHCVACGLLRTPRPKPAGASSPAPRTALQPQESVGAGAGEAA

B1: ianalumab (VAY736) (antibody, V domains shown)
VH: QVQLQQSGPGLVKPSQTLSLTCAISGDSVSSNSAAWGWIRQSPGRGLEWLGRIYYRSKWYNSYAVSVKSRITINPDTSKNQFSLQLNSVTPEDTAVYYCARYDWVPKIGVFDSWGQGTLVTVSS
VL: DIVLTQSPATLSLSPGERATLSCRASQFISSSYLSWYQQKPGQAPRLLIYGSSSRATGVPARFSGSGSGTDFTLTISSLEPEDFAVYYCQQLYSSPMTFGQGTKVEIKR
As for B1, the affinity, expressed as Kd, was 0.046 nM.
